The data set addresses native human alpha-thrombin (Homo sapiens, UniProt P00734;P00734 328-363;364-622). The experiment in a line: ITC; ITC: 20 mM HEPES-NaOH, 150 mM NaCl, 5 mM KCl, 2 mM MgCl2, 1 mM CaCl2, pH 7.4, 25 C; EMSA: same plus 0.05% Tween 20 and 10% glycerol, room temperature 30 min, ge.

B1: D-6 aptamer (structured_DNA)
DNA: CGGATCCAGTTACGGAACTGAACAGAAGGGTGGTGTGGTTGGACTGTTCATTCAGTAAGCTTCGG
Regarding B1, the Kd amounted to 27 nM.

As for ACGGAACGCGTTTCAAGACTACCGTGTTTGTTCCGT (structured_DNA, natural D-DNA) [D-L-9-1t], the binding result is recorded as “no binding”.

Consider GATGAACTTGTTGAAACCCAACGGGAGAATCGTTCATT (structured_DNA, natural D-DNA) [D-L-9-2t], for which the binding result is given as “no binding”.

The Kd is the free concentration of one partner at which half of the binding sites on the other are occupied at equilibrium, for simple one-to-one binding.
